Assay [1] deals with T1, flavodoxin (Fld); apo-Fld (Escherichia coli, UniProt P61949).
T1 sequence (P61949 2-176): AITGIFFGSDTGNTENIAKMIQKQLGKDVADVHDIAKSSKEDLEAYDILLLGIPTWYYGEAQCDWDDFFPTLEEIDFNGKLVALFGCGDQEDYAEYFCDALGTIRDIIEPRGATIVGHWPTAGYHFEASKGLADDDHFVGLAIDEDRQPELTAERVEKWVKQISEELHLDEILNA
Briefly: isothermal titration calorimetry. In kind it is binding.

Assay [2] has as its target NADP+-dependent flavodoxin oxidoreductase (FNR), Escherichia coli (E. coli) (UniProt P28861). The experiment in a line: SPR. In general terms: SPR reads the build-up and loss of mass on a sensor chip optically.
The target in assay [3] is pyruvate formate-lyase activating enzyme (PFL-AE), Escherichia coli (Escherichia coli) (UniProt P0A9N6). The experiment in a line: SPR.
Sequence of pyruvate formate-lyase activating enzyme (PFL-AE), Escherichia coli (Escherichia coli) (P0A9N6 2-246): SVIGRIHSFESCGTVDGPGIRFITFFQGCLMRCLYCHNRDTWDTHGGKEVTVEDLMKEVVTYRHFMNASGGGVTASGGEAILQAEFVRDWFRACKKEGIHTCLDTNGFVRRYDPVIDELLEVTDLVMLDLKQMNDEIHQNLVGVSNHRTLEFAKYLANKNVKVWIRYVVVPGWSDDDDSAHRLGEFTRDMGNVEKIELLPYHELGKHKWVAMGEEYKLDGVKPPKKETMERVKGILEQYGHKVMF

Sequence of NADP+-dependent flavodoxin oxidoreductase (FNR), Escherichia coli (E. coli) (P28861 whole entry): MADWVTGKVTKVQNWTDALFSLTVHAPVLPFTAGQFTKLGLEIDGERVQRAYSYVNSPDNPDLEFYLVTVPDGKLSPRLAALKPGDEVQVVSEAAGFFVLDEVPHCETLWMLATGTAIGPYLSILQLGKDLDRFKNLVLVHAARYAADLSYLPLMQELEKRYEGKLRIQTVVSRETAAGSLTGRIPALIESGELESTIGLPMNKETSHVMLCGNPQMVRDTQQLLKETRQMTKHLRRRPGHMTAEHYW

`Cc1cc2nc3c(=O)[nH]c(=O)nc-3n(C[C@H](O)[C@H](O)[C@H](O)COP(=O)(O)O)c2cc1C` [FMN]: the Kd in assay [1] is 0.0056 ± 0.0012 µM.

For “holo-flavodoxin (Fld with bound FMN cofactor), Escherichia coli (from UniProt P61949 2-176) (natural protein)”, the Kd in assay [2] came to 3.7 µM; in assay [3], 23.3 µM.

As usually defined, the Kd is a measure of binding affinity in units of concentration. Higher therefore signals weaker binding.

Values taken from publication PMC4012331 (Biochimica et biophysica acta, 2013).
